Source: patent publication US20200376136A1

Assays:
[1] = biological target: cynomolgus CD3 (cynomolgus monkey) (UniProt Q95LI5); assay: FACS titration on purified cynomolgus T cells
[2] = biological target: cynomolgus CD3 (cynomolgus monkey) (UniProt Q95LI5); assay: cell-based or functional assay
[3] = biological target: cynomolgus CD3 (cynomolgus monkey) (UniProt Q95LI5); assay: FACS titration of cynomolgus T cells

EC50 [1] [nM]	Cyno PBMC Proliferation [M] (donor) [2]	EC50 [3] [nM]	Binder
7.99	1.53e-11		BSSTEAP2/CD3-006 (bispecific antibody, V domains shown) VH 1: QVQLQQSGPGLVKPSQTLSLTCAISGDSVSSNRAAWNWIRQSPSRGLQWLGRTYYRSKWYNDYAVSLRSRITINPVTSKNQVALHMNSVTPEDTAVYYCARAGIVVVPGPETFYYYDHGLDVWGQGTTVTVSS VH 2: EVQLVESGGGLVQPGRSLRLSCVASGFTFDDYSMHWVRQAPGKGLEWVSGISWNSGSKDYADSVKGRFTISRDNAKNSLYLQMNSLRAEDTALYYCAKYGSGYGKFYHYGLDVWGQGTTVTVSS VL: DIQMTQSPSSLSASVGDRVTITCRASQSIRSYLNWYQQKPGKAPELLIHAASSLQSGVPSRFSGSGSGTDFTLTISSLQPEDFASYYCQQSYSAPPITFGQGTRLEIK
		1 to 40	CD3-VH-P (antibody, V domains shown) VH: EVQLVESGGGLVQPGRSLRLSCVASGFTFDDYSMHWVRQAPGKGLEWVSGISWNSGSKDYADSVKGRFTISRDNAKNSLYLQMNSLRAEDTALYYCAKYGSGYGKFYHYGLDVWGQGTTVTVSS VL: DIQMTQSPSSLSASVGDSVTITCRASQSINNYLNWYQQKPGKAPKLLIYTASSLLSGVPSRFSGSGSGTDFTLTISGLHPEDFATYFCQQSFSTPPITFGQGTRLDIK
17.3			BSSTEAP2/CD3-007 (bispecific antibody, V domains shown) VH 1: QVQLQQSGPGLVKPSQTLSLTCAISGDSVSSNRAAWNWIRQSPSRGLQWLGRTYYRSKWYNDYAVSLRSRITINPVTSKNQVALHMNSVTPEDTAVYYCARAGIVVVPGPETFYYYDHGLDVWGQGTTVTVSS VH 2: EVQLVESGGGLVQPGRSLRLSCAASGFTFADYTMHWVRQAPGKGLEWVSDISWNSGSIAYADSVKGRFTISRDNAKNSLYLQMNSLRTEDTAFYYCAKDSRGYGHYKYLGLDVWGQGTTVTVSS VL: DIQMTQSPSSLSASVGDRVTITCRASQSIRSYLNWYQQKPGKAPELLIHAASSLQSGVPSRFSGSGSGTDFTLTISSLQPEDFASYYCQQSYSAPPITFGQGTRLEIK

More lines, now with the values behind:

Binder	EC50 [1] [nM]	Cyno PBMC Proliferation [M] (donor) [2]	EC50 [3] [nM]
BSSTEAP2/CD3-004 (bispecific antibody, IgG4, V domains shown) VH 1: QVQLVESGGGVVQPGRSLRLSCVASGFTISSYGMNWVRQAPGKGLEWVAVISYDGGNKYSVDSVKGRFTISRDNSKNTLYLQMNSLRAEDSAVYYCARGRYFDLWGRGTLVTVSS VH 2: EVQLVESGGGLVQPGRSLRLSCAASGFTFADYTMHWVRQGPGTGLEWVSDIGWSGGSLGYADSVKGRFTISRDNAKNSLYLEMNNLRPEDTALYYCVKDKSGYGKFQYGLDVWGQGTTVTVSS VL: DIQMTQSPSTLSASVGDRVTITCRASQSISSWLAWYQQKPGRAPNLLISKASSLKSGVPSRFSGSGSGTEFTLTVSSLQPDDFATYYCQQYYSYSYTFGQGTKLEIK	1.99		
BSSTEAP2/CD3-001 (bispecific antibody, IgG4, V domains shown) VH 1: QVQLQQSGPGLVKPSQTLSLTCAISGDSVSSNRAAWNWIRQSPSRGLQWLGRTYYRSKWYNDYAVSLRSRITINPVTSKNQVALHMNSVTPEDTAVYYCARAGIVVVPGPETFYYYDHGLDVWGQGTTVTVSS VH 2: EVQLVESGGGLVQPGRSLRLSCAASGFTFDDYSMHWVRQAPGKGLEWVSGISWNSGSKGYADSVKGRFTISRDNAKNSLYLQMNSLRAEDTALYYCAKYGSGYGKFYHYGLDVWGQGTTVTVSS VL: DIQMTQSPSSLSASVGDRVTITCRASQSIRSYLNWYQQKPGKAPELLIHAASSLQSGVPSRFSGSGSGTDFTLTISSLQPEDFASYYCQQSYSAPPITFGQGTRLEIK	7.27	4.59e-12	
